Source: US20090263894A1 (AbbVie / Abbott, published 2009)
Numbering of substitutions follows the chain as printed.

Columns and labels:
Assay in all cases: flow cytometry, mAb titrated on yeast displaying NGAL
[1] = target: T1, NGAL rAg S158A displayed on yeast (human, UniProt P80188 21-198)
T1 construct: Yeast display AGA2 fusion as m5
T1 chain: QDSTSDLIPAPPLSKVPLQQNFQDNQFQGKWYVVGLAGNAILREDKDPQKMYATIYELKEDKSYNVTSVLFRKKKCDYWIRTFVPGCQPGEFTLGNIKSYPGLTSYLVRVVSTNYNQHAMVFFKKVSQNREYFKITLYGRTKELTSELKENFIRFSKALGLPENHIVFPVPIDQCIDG
Protocol: (§1) The side chain of each of the NGAL rAg residues identified from the epitope selections was altered by site-directed mutagenesis to alanine to confirm the functional epitope (direct contact residues) of each NGAL mAb subclone.
(§2) The change in Gibbs free binding energy (ΔΔG_Ala-WT) was determined to assess the energetic impact of each alanine substitution for mAb binding. The change in Gibbs free binding energy upon alanine substitution was calculated using the following equation [2],
(§3) For these experiments, observed fluorescence (F) was used to solve for KD using equation [1]. The KD derived from equation [1] one was then used in equation [2] to derive the change in Gibbs free binding energy upon alanine substitution. The KD is read from the abscissa of each of the curves at the inflection point.

[2] = target: T2, NGAL rAg G160A displayed on yeast (human, UniProt P80188 21-198)
T2 construct: Yeast display AGA2 fusion as m5
T2 chain: T1 chain with A158S, G160A
Protocol: as §1, §2, §3

[3] = target: T3, NGAL rAg S14A displayed on yeast (human, UniProt P80188 21-198)
T3 construct: Yeast display AGA2 fusion as m5
T3 chain: T1 chain with S14A, A158S
Protocol: as §1, §2, §3

[4] = target: T4, NGAL rAg L159A displayed on yeast (human, UniProt P80188 21-198)
T4 construct: Yeast display AGA2 fusion as m5
T4 chain: T1 chain with A158S, L159A
Protocol: as §1, §2, §3

[5] = target: T5, NGAL rAg H118A displayed on yeast (human, UniProt P80188 21-198)
T5 construct: Yeast display AGA2 fusion as m5
T5 chain: T1 chain with H118A, A158S
Protocol: as §1, §2, §3

[6] = target: T6, NGAL rAg E147A displayed on yeast (human, UniProt P80188 21-198)
T6 construct: Yeast display AGA2 fusion as m5
T6 chain: T1 chain with E147A, A158S
Protocol: as §1, §2, §3

[7] = target: T7, NGAL rAg S112A displayed on yeast (human, UniProt P80188 21-198)
T7 construct: Yeast display AGA2 fusion as m5
T7 chain: T1 chain with S112A, A158S
Protocol: as §1, §2, §3

[8] = target: T8, NGAL rAg Q117A displayed on yeast (human, UniProt P80188 21-198)
T8 construct: Yeast display AGA2 fusion as m5
T8 chain: T1 chain with Q117A, A158S
Protocol: as §1, §2, §3

[9] = target: T9, NGAL rAg A119G displayed on yeast (human, UniProt P80188 21-198)
T9 construct: Yeast display AGA2 fusion as m5
T9 chain: T1 chain with A119G, A158S
Protocol: as §1, §2, §3

B1: anti-NGAL monoclonal antibody 1-903-430 (antibody, V domains shown)
VH: KIQLVQSGPELKKPGETVKISCKASGYTFTNYGMNWVKQAPGKGLKWMGWININTGEPTYAEEFKGRFAFSLETSATTAFLQINNLKNEDTATYLCARDSYSGGFDYWGQGTIVTVSS
VL: DIVMTQSPSSLSVSAGEKVTLSCKSSQSLLISGDQKNYLAWYQQKPGQPPKLLIYGASTRDSGVPDRFTGSGSGADFTLTISSVQAEDLAVYYCQNDHSFPPTFGAGTKLELKR
B1 was tested, and the Kd [1] was 0.242 nM, the “ΔKD (KD against KD of WT)” value [1] was 1.19 fold and the “ΔΔG Ala-WT” value [1] was 0.1 kcal/mol. The Kd [2] was 0.164 nM, the “ΔKD (KD against KD of WT)” value [2] was 0.8 fold and the “ΔΔG Ala-WT” value [2] was -0.13 kcal/mol. For the same binder, the Kd [3] was 0.281 nM, the “ΔKD (KD against KD of WT)” value [3] was 1.38 fold and the “ΔΔG Ala-WT” value [3] was 0.19 kcal/mol. For the same binder, the Kd [4] was 0.137 nM, the “ΔKD (KD against KD of WT)” value [4] was 0.67 fold and the “ΔΔG Ala-WT” value [4] was -0.23 kcal/mol.

B2: anti-NGAL monoclonal antibody 1-2322-455 (antibody, V domains shown)
VH: EVQLVESGGGLVQPGGSLKLSCAASGFTFNNYYMSWVRQTPERRLEWVAYISSSGGSTYYSDSVRGRFTISRDTARNTLYLQMTSLKSEDTAMYYCARHFGDYSYFDYWGQGTTLTVSS
VL: DIQMTQSPASLSASVGETVTITCRASENFYSYLAWYQQKQGKSPQLLVYNAKTLAEGVPSRFSGSGSGTQFSLKINSLQPEDFGTYYCQHHYDIPLTFGAGTKLELKR
B2 was tested, and the Kd [5] was 0.114 nM, the “ΔKD (KD against KD of WT)” value [5] was 14.1 fold and the “ΔΔG Ala-WT” value [5] was 1.56 kcal/mol. The Kd [6] was 492 nM, the “ΔKD (KD against KD of WT)” value [6] was 61000 fold and the “ΔΔG Ala-WT” value [6] was 6.5 kcal/mol. The Kd [7] was 0.0793 nM, the “ΔKD (KD against KD of WT)” value [7] was 9.79 fold and the “ΔΔG Ala-WT” value [7] was 1.35 kcal/mol. For the same binder, the Kd [8] was 0.0307 nM, the “ΔKD (KD against KD of WT)” value [8] was 3.79 fold and the “ΔΔG Ala-WT” value [8] was 0.79 kcal/mol. The Kd [9] was 0.00783 nM, the “ΔKD (KD against KD of WT)” value [9] was 0.97 fold and the “ΔΔG Ala-WT” value [9] was -0.02 kcal/mol.
